# Results from US20050118651A1 (NEURALAB, published 2005).
# B1: humanized 12A11 version 1 (antibody, V domains shown)
# VH: QVQLVESGGGVVQPGRSLRLSCAFSGFSLSTSGMSVGWIRQAPGKGLEWLAHIWWDDDKYYNPSLKSRLTISKDTSKNTVYLQMNSLRAEDTAVYYCARRTTTADYFAYWGQGTTVTVSS
# VL: DVVMTQSPLSLPVTPGEPASISCRSSQSIVHSNGNTYLEWYLQKPGQSPQLLIYKVSNRFSGVPDRFSGSGSGTDFTLKISRVEAEDVGVYYCFQSSHVPLTFGQGTKLEIK
# notes: Made by transient expression in COS cells; also called h12A11v1; 12A11v1
# Biological target: T1, synthetic Aβ1-42 peptide (aggregated in the ELISAs) (human, UniProt P05067 672-713)
# T1 construct: range 672-713; It was coated as aggregated peptide in the ELISAs; also called aggregated Aβ1-42; Aβ (1-42) aggregate
# Experiment: competitive Aβ 1-42 ELISA; competitor biotinylated m12A11Cγ2a at a fixed concentration
binder,measurement,value
B1,fold of IC50 against murine and chimeric 12A11,≤ 2 fold (x IC50)
